{"source": "patent US20250152663A1", "about": "“COMPOSITION FOR PREVENTION OR TREATMENT OF DRY EYE DISEASE COMPRISING HAPLN1” (HAPLNSCIENCE INC., priority 2021, published 2025)", "molecules": {"B1": {"name": "hyaluronan and proteoglycan link protein 1 (HAPLN1) (protein, listed as Homo sapiens)", "chain": "MKSLLLLVLISICWADHLSDNYTLDHDRAIHIQAENGPHLLVEAEQAKVFSHRGGNVTLPCKFYRDPTAFGSGIHKIRIKWTKLTSDYLKEVDVFVSMGYHKKTYGGYQGRVFLKGGSDSDASLVITDLTLEDYGRYKCEVIEGLEDDTVVVALDLQGVVFPYFPRLGRYNLNFHEAQQACLDQDAVIASFDQLYDAWRGGLDWCNAGWLSDGSVQYPITKPREPCGGQNTVPGVRNYGFWDKDKSRYDVFCFTSNFNGRFYYLIHPTKLTYDEAVQACLNDGAQIAKVGQIFAAWKILGYDRCDAGWLADGSVRYPISRPRRRCSPTEAAVRFVGFPDKKHKLYGVYCFRAYN"}}, "key": {"[1]": {"tested_on": "human corneal epithelial cells", "assay": "Scratch wound healing (cell proliferation and migration) under high osmotic pressure", "format": "cell-based", "conditions": "HCEC, 450 mOsM", "experimental": "The human corneal epithelial cells were seeded onto 24 wells and incubated for 24 hours under low osmotic pressure conditions (314 mOsM). Then, after replacing the culture medium with a high osmotic pressure medium (450 mOsM), the cells were incubated for 48 hours. Then, the surface of the Petri dish was vertically scratched and washed twice, and then the culture medium was replaced with the high osmotic pressure medium again and simultaneously the cells were treated with different concentrations of the HAPLN1 protein-containing composition of the present disclosure (FIG. 2A). A reduction in the scratched area was confirmed by obtaining photographs using a microscope at a time of scratching (0 h) and after 30 hours (FIG. 2B). This was imaged and a ratio of an area filled with cells to an initial area was identified by using ImageJ (FIG. 2C)."}, "[2]": {"tested_on": "corneal epithelial cells", "assay": "Detachment of corneal epithelial cells (H & E staining), mouse dry eye model", "format": "in vivo, C57BL/6", "conditions": "after 16 days of drug treatment, regardless of concentration", "experimental": "On the 2nd day after 16 days of drug treatment, eyes were enucleated and paraffin blocked, and tissue was stained by hematoxylin and eosin (H & E) staining on a prepared slide (FIG. 9A). The number of detached corneal epithelial cells was measured and quantified (FIG. 9B)."}, "[3]": {"tested_on": "MUC16 mRNA in human corneal epithelial cells", "assay": "RT-qPCR of mucin mRNA (MUC16) under high osmotic pressure", "format": "cell-based", "conditions": "HCEC, 450 mOsM, 20 to 200 ng/ml, particularly 50 to 200 ng/ml, 24 hours; compared to the untreated group", "experimental": "First, the human corneal epithelial cells (HCECs, 5th passage) were seeded onto 6 wells at a density of […]. After 24 hours, the HCECs were pre-treated with a medium with different osmotic pressures (314 and 450 mOsM). After 48 hours of incubation, the cells were treated with the composition of the present disclosure having different concentrations of rhHAPLN1 (0, 5, 10, 20, 50, 100, and 200 ng/ml) and Cyclosporine A (0.1 μM), as a control drug, for 24 hours. Then, the cells were washed and sampled to perform RT-qPCR (FIG. 5A).\nTotal mRNA was purified from the HCECs by using a Qiagen kit. A cDNA was synthesized by using the iScript cDNA synthesis kit. Subsequently, RT-qPCR was performed and result data was expressed as relative expression levels (fold) (FIGS. 5B to 5C)."}, "[4]": {"tested_on": "MUC5AC in human conjunctiva epithelial cells (HConEpiC)", "assay": "Anti-MUC5AC fluorescence staining under high osmotic pressure", "format": "cell-based", "experimental": "First, human conjunctiva epithelial cells (HConEpiC) obtained after 4th passage of culture were seeded onto 24 wells and incubated for 24 hours, and then treated with high osmotic pressure of 450 mOsM simultaneously with the composition of the present disclosure having various concentrations (0, 5, 10, 20, 50, 100, and 200 ng/ml) of the HAPLN1 protein or Cyclosporine A (0.1 μM). After 72 hours of incubation, the cells were immobilized with 4% paraformaldehyde for 30 minutes and washed with a buffer. Subsequently, fluorescence staining was performed by using Anti-MUC5AC (DAPI labels the nuclei)."}, "[5]": {"tested_on": "inflammatory factors (Interleukins, CCL/CXCL family, Chitinase 3-like 1) in human corneal epithelial cells", "assay": "Human XL cytokine array of culture broth under high osmotic pressure", "format": "cell-based", "conditions": "HCEC, 450 mOsM, 24 hours", "experimental": "As one of the effects the HAPLN1 protein-containing composition of the present disclosure on the relief of dry eye disease, an effect on the relief of inflammation was verified by using Human XL cytokine array (R&D Systems. ARY022B) based on expression levels of inflammatory factors (Interleukins, CCL/CXCL family, and […]).\nFirst, the human corneal epithelial cells after 4th passage were seeded onto 6 wells and incubated for 24 hours under low osmotic pressure conditions (314 mOsM). Subsequently, the cells were incubated under high osmotic pressure conditions (450 mOsM) for 48 hours and treated with different concentrations (i.e., 10 μg/ml HAPLN 1 μl to 1 ml media->working concentration of 10 ng/ml) of the composition according to the present disclosure. Then, the cells were further incubated for 24 hours, and the culture broth was recovered therefrom, followed by an assay on the expression level of each marker by using Human XL cytokine array (R&D Systems. ARY022B). According to each of the graphs of FIG. 3B illustrating relative expression levels of the markers of the inflammatory factors in the different concentrations of the HAPLN1 protein, it was confirmed that secretion of inflammatory factors such as IL-6, IL-17A, CCL20, CXCL10, CCL5, CD54, and CD176 increased under the high osmotic pressure conditions (450 mOsM)."}, "[6]": {"tested_on": "corneal epithelial cells", "assay": "Detached corneal epithelial cells (H & E staining), rabbit dry eye model", "format": "in vivo, New Zealand white rabbits", "experimental": "Eyes of the rabbits including conjunctiva were enucleated, fixed with a specific fixing solution to be embedded into paraffin, and microsectioned, followed by staining and analysis according to the purpose. In this regard, the eyeballs were stained by hematoxylin & eosin (H & E) staining and detachment of corneal epithelial tissue was analyzed. After PAS staining, distribution of goblet cells in the conjunctiva was measured. In addition, after conjunctiva epithelium indentation (impression cytology), PAS staining was performed and distribution of goblet cells was measured.\nAfter 15 days of eye examination, on the 1st day after 16 days of drug treatment, eyes were enucleated, subjected to histopathological analysis, and paraffin blocked. Tissue was stained in a section slide by H & E staining (FIG. 16A). The number of corneal epithelial cells detached in a range of 200 μm^2 was measured and quantified (FIG. 16B)."}}}
{"molecule": "B1", "values": [{"measurement": "scratched surface covered by cell proliferation and migration", "setting": "[1]; 5 and 10 ng/ml, 30 hours, normal cells about 82%", "value": "about 60%"}, {"measurement": "cell proliferation and migration phenomena of scratched surfaces", "setting": "[1]; 5 to 100 ng/ml, 30 hours", "value": "observed over the entire area"}, {"measurement": "area covered with migrated cells compared with Cyclosporin A", "setting": "[1]; regardless of concentration, vs 0.1 μM Cyclosporin A", "value": "higher than 0.1 μM of Cyclosporin A"}, {"measurement": "number of damaged (detached) corneal epithelial cells", "setting": "[2]", "value": "decreased"}, {"measurement": "expression level of MUC16 (FIG. 5C)", "setting": "[3]", "value": "significantly increased"}, {"measurement": "numbers of cells secreting MUC5AC, compared with control", "setting": "[4]; 450 mOsM, 10, 20, 50, 100, and 200 ng/ml, 72 hours", "value": "significantly greater than that of the normal control"}, {"measurement": "numbers of cells secreting MUC5AC, compared with Cyclosporine A", "setting": "[4]; 450 mOsM, at some concentrations, vs Cyclosporine A 0.1 μM", "value": "greater than the case treated with Cyclosporine A"}, {"measurement": "expression levels of the inflammatory factors, compared with untreated groups", "setting": "[5]; 10 to 100 ng/ml", "value": "lower than that of untreated groups"}, {"measurement": "expression levels of IL-17A, Fas ligand/CD178, FGF-7, FGF-19, Angiogenin, RBP-4, and Chitinase 3-like 1", "setting": "[5]", "value": "reduced to the levels of normal cells"}, {"measurement": "expression levels of various inflammatory factors, relative to normal group (1.0)", "setting": "[5]", "value": "decreased to the level of the normal group or less"}, {"measurement": "number of detached corneal epithelial cells", "setting": "[6]; after 16 days of drug treatment, concentration dependent", "value": "decreased"}, {"measurement": "degree of detachment of corneal epithelial cells", "setting": "[6]; high concentration (50 μg/ml)", "value": "lowest"}]}
